Experiment [1] has as its target T1, LRRC25(96-115) biotin peptide (human, not fully specified; N-terminal acetyl; C-terminal GGK-Biotin; native Cys changed to Ser).
T1 construct: also called Biotin LRRC25 (96-115) peptide
T1 peptide: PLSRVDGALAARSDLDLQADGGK
The experiment in a line: ELISA, 20 nM antibody, biotinylated antigen on streptavidin plate. Here is the method:
(§1) To establish if functional chimera anti-LRRC25 antibodies recognize particular regions of LRRC25, ELISA experiments were performed using 10 plate-immobilized 16- to 20-mer overlapping LRRC25(ECD) biotin peptides (Table 7). Biotinylated human LRRC25-His served as a positive control. A typical ELISA was performed by coating overnight at 4° C., 3 ug/mL/25 ul per well of streptavidin (Jackson Immunoresearch, Cat. #016-030-084) in PBS in half-area high binding microtiter wells (Corning Cat. #3690). […] Biotin peptides or biotinylated human LRRC25-His protein were added in duplicate (2 ug/mL/25 ul per well) in assay buffer (blocking buffer containing 0.05% tween 20) and the plate incubated for 45 min at 37° C. The plate was washed as before, 20 nM anti-LRRC25 antibodies in assay buffer added in duplicate into appropriate wells, and the plate incubated as before. The plate was washed and HRP-conjugated secondary antibody in assay buffer added [25 ul per well; goat anti-human IgG (Jackson Immunoresearch, Cat. #715-035-150)], and incubated as before. Antibody bound to plate-immobilized peptide(s) or protein was determined at A450 nm using HRP substrate (3,3′,5,5′-tetramethylbenzidine (TMB); eBioscience; Cat. #00-4201-56); 100 μl/well).
A general note: ELISA stands for enzyme-linked immunosorbent assay.

Experiment [2] concerns the target T2, biotinylated human LRRC25-His protein (human, UniProt Q8N386 21-165, biotinylated (sites not given)).
T2 construct: also called Biotin LRRC25-His; biotinylated LRRC25 protein
Described as above. On the procedure:
as §1

For experiment [3], the target named is T3, His-tagged human LRRC25 extracellular domain protein, human LRRC25-His (human, UniProt Q8N386 21-165).
T3 construct: The entry holds the extracellular domain, a GSG linker and the His tag; also called LRRC25(ECD)-HIS
The experiment in a line: ELISA, plate-immobilized antigen. On the procedure: (§2) To establish the relative binding strengths of anti-LRRC25 antibodies against human LRRC25, and their cross-reactivity with cynomolgus monkey LRRC25, antibody binding curve analyses were performed and EC50 values against plate-immobilized recombinant human and cyno LRRC25 proteins were determined.
(§3) A typical ELISA was performed by coating overnight in PBS, pH 7.4, at 4° C. in high binding microtiter wells with 1 ug/mL/100 ul per well of human LRRC25-His or cyno LRRC25-His. An anti-human LRRC25 antibody (2A3, LS Bio, LS-C174039-100) and anti-HIS-HRP (Miltenyi Biotec; 130-092-783) served as coating controls for the human and cyno LRRC25 proteins, respectively. […] Anti-LRRC25 antibodies were added (100 ul per well) at 500 nM and serially diluted 3-fold in assay buffer (1% skimmed milk in PBS, pH 7.4). The plate was incubated with gentle agitation for 1 h at room temperature. The plate was washed 3× and HRP-conjugated secondary antibody in assay buffer added [100 ul per well; goat anti-human IgG (Jackson Immunoresearch, cat #715-035-150)], and the plate was incubated as before. Antibody bound to plate-immobilized LRRC25(ECD)-HIS was determined at A450 nm using HRP substrate (3,3′,5,5′-tetramethylbenzidine (TMB); eBioscience; 00-4201-56); 100 μl/well).

Experiment [4] has as its target T4, His-tagged cynomolgus monkey LRRC25 extracellular domain protein, cyno LRRC25-His (cynomolgus monkey).
T4 construct: The entry holds the extracellular domain, a GSG linker and the His tag
Description: ELISA, plate-immobilized antigen. Here is the method: as §2, §3

The target in experiment [5] is T5, LRRC25(150-165) biotin peptide (human).
T5 peptide: Ac-SAFLEVSSAPGLASATGG-{Biotin′}
The experiment in a line: peptide ELISA. Here is the method:
as §1

The target of experiment [6] is T6, LRRC25(141-159) biotin peptide (human, not fully specified; N-terminal acetyl; C-terminal GGK-Biotin; native Cys changed to Ser).
T6 peptide: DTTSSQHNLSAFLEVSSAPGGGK
The experiment in a line: peptide ELISA. On the procedure:
as §1

Experiment [7] concerns the target T7, LRRC25(36-55) biotin peptide (human, not fully specified; N-terminal NH2; C-terminal GGK-Biotin; native Cys changed to Ser).
T7 peptide: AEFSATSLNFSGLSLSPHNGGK
The experiment in a line: peptide ELISA. On the procedure: as §1

In experiment [8] the target is T8, LRRC25(81-100) biotin peptide (human, not fully specified; N-terminal acetyl; C-terminal GGK-Biotin).
T8 peptide: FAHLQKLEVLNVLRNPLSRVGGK
The experiment in a line: peptide ELISA. Here is the method:
as §1

The target in experiment [9] is T9, LRRC25(111-130) biotin peptide (human, not fully specified; N-terminal acetyl; C-terminal GGK-Biotin; native Cys changed to Ser).
T9 peptide: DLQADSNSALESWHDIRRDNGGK
The experiment in a line: peptide ELISA. On the procedure: as §1

The target in experiment [10] is T10, LRRC25(126-145) biotin peptide (human, not fully specified; N-terminal acetyl; C-terminal GGK-Biotin; native Cys changed to Ser).
T10 peptide: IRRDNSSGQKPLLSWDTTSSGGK
Description: peptide ELISA. Here is the method:
as §1

In experiment [11] the target is T11, LRRC25(51-69) biotin peptide (human, not fully specified; N-terminal acetyl; C-terminal GGK-Biotin).
T11 peptide: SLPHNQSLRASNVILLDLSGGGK
Description: peptide ELISA. On the procedure: as §1

The target in experiment [12] is T12, LRRC25(66-85) biotin peptide (human, not fully specified; N-terminal acetyl; C-terminal GGK-Biotin).
T12 peptide: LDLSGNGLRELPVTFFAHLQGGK
Description: peptide ELISA. Here is the method: as §1

Experiment [13] has as its target T13, LRRC25(21-40) biotin peptide (human, not fully specified; N-terminal NH2; C-terminal GGK-Biotin; native Cys changed to Ser).
T13 peptide: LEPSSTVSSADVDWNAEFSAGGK
Description: peptide ELISA. On the procedure:
as §1

Experiment [14] has as its target T1, LRRC25(96-115) biotin peptide. The experiment in a line: peptide ELISA. Here is the method: as §1
Experiment [15] deals with T4, His-tagged cynomolgus monkey LRRC25 …. Description: ELISA, plate-immobilized cyno LRRC25-His. Here is the method: as §3

As a reminder, the EC50 is the midpoint of the concentration-response curve.

Where a chain is given by its changes, count along the chain named. Primed or numbered codes have the meaning given here. Biotin′ = not defined here

T4 sequence (chain, as listed by the source limits assumed): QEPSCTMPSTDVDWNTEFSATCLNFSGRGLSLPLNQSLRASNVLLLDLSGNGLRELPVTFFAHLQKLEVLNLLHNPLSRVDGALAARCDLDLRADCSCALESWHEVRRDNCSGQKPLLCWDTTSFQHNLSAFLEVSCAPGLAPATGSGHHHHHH
T2 sequence (Q8N386 other isoform, or with tags, fused parts or gaps): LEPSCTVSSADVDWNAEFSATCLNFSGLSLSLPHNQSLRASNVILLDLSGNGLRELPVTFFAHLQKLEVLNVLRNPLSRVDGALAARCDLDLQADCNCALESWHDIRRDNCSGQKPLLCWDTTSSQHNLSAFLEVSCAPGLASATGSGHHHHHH
T3 sequence (Q8N386 other isoform, or with tags, fused parts or gaps): as above

B1: anti-LRRC25 chimeric antibody 1A01 (antibody, human IgG4, V domains shown)
VH: EVKLLESGGGLVKPGGSLKLSCAASGFTFSSYAMSWVRQTPEKRLEWVASISRGGNTYYPDSVKGRFTISRDNARNILYLQMSSLRSEDTAMYYCARGNYGNSPFAYWGQGTLVTVSA
VL: DIVMTQSPASLAVSLGQRATISCRASKSVSTSGYSYMHWYQQKPGQPPKLLIYLASNLESGVPARFSGSGSGTDFTLNIHPVEEEDAATYYCQHSRELPFTFGSGTKLEIKR
notes: also called mAb 1A01
Turning to B1, the “absorbance (A450)” value in [1] turned out to be 2.33 A450; in [2], 0.456 A450. Also, the EC50 in experiment [3] is 4.1 nM; in experiment [4], above 500 nM. The binding result in experiment [5], in experiment [6], in experiment [7], in [8], in [9] and in [10] was “no binding (tested: 20 nM)” throughout. Moreover, the binding result in experiment [11], in experiment [12] and in experiment [13] was “no binding (tested: 20 nM)” throughout.

B2: anti-LRRC25 chimeric antibody 4A03 (antibody, human IgG4, V domains shown)
VH: B1 VH with E1D, K3N, L5E, E6V, S31R, N56S, N73I, N76D, N102S, P104L
VL: DIVMTQAAFSNPVTLGTSASISCRSSKSLLHSNGITYLYWYLQKPGQSPQLLIYQMSNLASGVPDRFSSSGSGTDFTLRISRVEAEDVGVYYCAQNLELPFTFGSGTKLEIKR
With B2, the “absorbance (A450)” value in [1] is 0.11 A450; in experiment [2] it was 0.251 A450. The molecule further returned an EC50 in experiment [3] of around 100 nM. Also, the binding result in experiment [5], in experiment [6], in experiment [7], in [8], in [9] and in experiment [10] was “no binding (tested: 20 nM)” throughout. The binding result is given as “no binding (tested: 20 nM)” in [14]; “no binding (tested: 20 nM)” in experiment [11]; “no binding (tested: 20 nM)” in [12]; “no binding (tested: 20 nM)” in [13]; “no binding (tested: 500 nM)” in experiment [15].

B3: anti-LRRC25 chimeric antibody 3C01 (antibody, human IgG4, V domains shown)
VH: EEKLEESGGGLVKPGGSLKLSCAVSGFTLSSYAMSWVRQTPEKRLEWVASISRGGNTYYPDSVKGRFTISRDNGRNILNLQMSSLRSEDTAIYYCTRGGGSTMITSLFAYWGQGTLVTVSA
VL: DIVMTQDAPSVPVTPGESVSISCRSSKSLLHSNGNTYLYWFLQRPGQSPQLLIYRMSNLASGVPDRFSGSGSGTAFTLRISRVEAEDVGVYYCMQHLEYPFTFGSGTKLEIKR
notes: also called ATCC PTA-126026
For the molecule B3, the entries for the “absorbance (A450)” value in [1] and in experiment [2] were 0.079 A450 and 0.354 A450, respectively. In experiment [3], this molecule gave an EC50 of 30.3 nM. The binding result in [5], in experiment [6], in experiment [7], in [8], in [9] and in experiment [10] was “no binding (tested: 20 nM)” in each case. In addition, the binding result is “no binding (tested: 20 nM)” in [14]; “no binding (tested: 20 nM)” in experiment [11]; “no binding (tested: 20 nM)” in experiment [12]; “no binding (tested: 20 nM)” in [13]; “no binding (tested: 500 nM)” in [15].

B4: anti-LRRC25 chimeric antibody 1E11 (antibody, human IgG4, V domains shown)
VH: EVQLLETGGGLVKPGGSLKLSCAASGFTFSSSAMSWVRQTPEKRLEWVTSISRGGNTYYPDSVKGRFTISRDNARNILYLQMSSLRSEDTAMYYCARGQELRLFAYWGQGTLVTVSA
VL: B2 VL with A7D
On to B4, for which the “absorbance (A450)” value is 2.65 A450 in [1] and 1.89 A450 in [2]. The EC50 in experiment [3] was 0.58 nM; in [4], around 500 nM. Moreover, the binding result in experiment [5], in experiment [6], in [7], in experiment [8], in [9] and in experiment [10] was “no binding (tested: 20 nM)” in each case. Also, the binding result in experiment [11], in experiment [12] and in [13] was “no binding (tested: 20 nM)” in each case.

B5: anti-LRRC25 chimeric antibody 3E08 (antibody, human IgG4, V domains shown)
VH: EVKLLESGGGLVKPGGSLKLSCAASGFTLSSYAMSWVRQTPEKRLEWVASISRSNTTYYPDSVKGRFTISRDNAKNILYLQMSSLRSEDTAMYYCARGVLLRPFASWGQGTLVTVSA
VL: B2 VL with A7D, F101L, S105A, I111L
With B5, the “absorbance (A450)” value turned out to be 0.052 A450 in experiment [1] and 0.152 A450 in experiment [2]. The same molecule registered an EC50 in experiment [3] of around 1000 nM. Moreover, the binding result in experiment [5], in experiment [6], in experiment [7], in [8], in experiment [9] and in experiment [10] was “no binding (tested: 20 nM)” each time. In addition, the binding result in [14] was “no binding (tested: 20 nM)”; in experiment [11] it was “no binding (tested: 20 nM)”; in experiment [12], “no binding (tested: 20 nM)”; in experiment [13], “no binding (tested: 20 nM)”; in [15], “no binding (tested: 500 nM)”.

(Values after US20220363752A1 (VERSEAU THERAPEUTICS, published 2022).)
